Measurements reported in patent US8846363B2, “Compositions of and methods of using sulfatases from Flavobacterium heparinum” (priority 2007, dated 2014).

Legend:
[1] = Effect of pH on N-sulfamidase activity by capillary electrophoresis; assay type: biochemical
Experimental: (§1) Initial assessment of substrate specificity and pH optima was made using a capillary electrophoresis-based assay for the detection of desulfated products. Preliminary enzyme activity was measured against the following series of fluorescently derivatized, monosulfated gluco and galactopyranosides: 4-MU-GlcNAc,6S, 4-MU-GlcNS, 4-MU-GalNAc,6S and 4-MU-Gal6S. Standard reactions included 1 mM substrate, 1-10 μM enzyme, 50 mM sodium acetate, pH 5.5-6.5 and 5 mM CaCl2 in a 20 μL reaction volume. For pilot experiments, exhaustive reactions involved overnight incubations at 30° C. Enzyme was inactivated by heat denaturation at 95° C. for 10 minutes, followed by a 10-fold dilution into water. Reaction products were resolved by capillary electrophoresis using a 25 cm long, 75 μm (i.d.) fused silica capillary (Agilent Technologies, Palo Alto, Calif.). Electrophoresis was carried out under negative polarity by applying a voltage of −15 kV (˜1.2 W) for 10 minutes. Substrate desulfation was measured as a percentage of substrate depletion relative to a minus enzyme control as monitored by the loss of UV absorbance at 315 nm detected at approximately 4 minutes. A standard capillary electrophoresis buffer included 50 mM Tris and 10 μM dextran sulfate (average MW of 10,000 Da) adjusted to pH 2.0 with phosphoric acid. At this pH, saccharide migration occurred on the basis of charge without the influence of electro-osmotic flow.
The effect of pH was likewise measured by capillary electrophoresis using the following three sets of buffers with overlapping pH ranging from 4.5 to 8.0:50 mM sodium citrate at 4.5, 5.0, and 5.5; 50 mM MES at 5.5, 6.0, 6.5 and 7.0; and 50 mM MOPS at 6.5, 7.0, 7.5, and 8.0. Reactions included 1 μM enzyme, 2 mM 4-MU-GlcNAc,6S (for 6-O-sulfatase) or 4-MU-GlcNS (for N-sulfamidase), 50 mM buffer and 5 mM CaCl2 in a 20 μL reaction volume. Assay was initiated by the addition of 2 μl of a 10× enzyme stock to 18 μL of preheated reaction mixture. […]

[2] = Effect of pH on 6-O-sulfatase activity by capillary electrophoresis; assay type: biochemical
Experimental: as §1, with “Electrophoresis was carried out under negative polarity by applying a voltage of −15 kV (˜1.2 W) for 10 minutes.” left out, “A standard capillary electrophoresis buffer included 50 mM Tris and 10 μM dextran sulfate (average MW of 10,000 Da) adjusted to pH 2.0 with phosphoric acid. At this pH, saccharide migration occurred on the basis of charge without the influence of electro-osmotic flow.” left out
The effect of pH was likewise measured by capillary electrophoresis using the following three sets of buffers with overlapping pH ranging from 4.5 to 8.0:50 mM sodium citrate at 4.5, 5.0, and 5.5; 50 mM MES at 5.5, 6.0, 6.5 and 7.0; and 50 mM MOPS at 6.5, 7.0, 7.5, and 8.0. […]

[3] = substrate: CC(=O)N[C@H]1[C@H](Oc2ccc3c(C)cc(=O)oc3c2)O[C@H](COS(=O)(=O)O)[C@@H](O)[C@@H]1O; test: Steady-state kinetics, coupled 6-O-sulfatase/β-glucosidase fluorimetric assay with 4-MU-GlcNAc,6S; assay type: biochemical, Flavobacterium heparinum (Pedobacter heparinus)
Excerpt: Recombinant protein expression in the E. coli strain BL21(DE3) and one-step affinity purification by nickel chelation chromatography were as described for 2-O-sulfatase (Myette et al., 2003 J Biol Chem 278, 12157-12166). The prediction of NH2-terminal signal sequences and putative cleavage sites for the two respective proteins was made by the Von Heijne computational method (Nielsen et al., 1997 Protein Eng 10, 1-6.). Engineering and expression of these truncated proteins (minus signal sequences) were as described above for the full-length genes with the exception of substituting the 5′ primers which were used in the original PCR amplification step. These internal primers included 5′ TCTAGACATATGTCTTGCCAGCAGCCTAAAC 3′ (for ORF B; SEQ ID NO: 15) and 5′ TCTAGACATATGTCCTGCACTTCGCCGGAA 3′ (for ORF C; SEQ ID NO: 16), with the Nde 1 site underlined. As such, the ORF B gene sequence begins at Met 18 (FIG. 1). Likewise, the ORF C gene sequence begins at Ser 21 (FIG. 2). Removal of the 6×His tag was achieved by site-specific protease cleavage using the thrombin cleavage capture kit (Novagen, San Diego, Calif.). Proteolysis conditions were generally as described for other recombinantly expressed flavobacterial heparin degrading enzymes. Following concentrating the enzymes by ultrafiltration, cleaved proteins were dialyzed overnight against 4 liters of 50 mM Tris, pH 7.5 and 0.1 M NaCl, 4° C., using a 3 mL slide-a-lyzer cassette with a 10,000 molecular weight cutoff (MWCO) (Pierce Chemical, Rockland, Ill.).
Coupled Enzyme Assay for the Determination of Biochemical Reaction Conditions and Steady-State Kinetics
Indirect measurement of enzyme activity was also made using a fluorimetrically-based plate assay in which the prerequisite desulfation of the appropriate glucopyranoside 1→4 methlybelliferone substrate by either the 6-O-sulfatase or N-sulfamidase was coupled to the glucosidase-mediated hydrolysis of the stereo-specific 1→4 glycosidic linkage between the pyranose ring and the adjoining fluorophore. Release of the free fluorophore (4-MU) was monitored spectroscopically as described above for the arylsulfatase assay using 4-MU sulfate. The two sulfatase assays differed in the choice of substrate in accordance to their specificity as well as the glucosidase added during the second, […] step. For the 6-O-sulfatase, the hydrolysis of the substrate 4-MU-β-D-GlcNAc,6S at the 6-OH position was coupled to β-glucosidase purified from sweet almonds (MP Biomedicals, Solon, Ohio, Catalog No. 195197). Likewise, N-sulfamidase hydrolysis of 4-MU-α-D-GlcNS at the 2-amino position was coupled to α-glucosidase (MP Biomedicals, Catalog No. 153487). […] The presumption of the first (sulfatase) activity being the rate-limiting step was established experimentally. Reaction conditions were optimized to satisfy three related criteria: 1) linear readout of fluorescent signal which is directly proportional to sulfatase activity; 2) quantitative release of 4-MU by glucosidase activity under every biochemical condition examined and; 3) negligible fluorescent quenching of the free chromophore.
For the 6-O-sulfatase/β-glucosidase assay, the standard reaction conditions included 2 μM recombinant enzyme, 50 mM sodium acetate buffer, pH 5.5, and 5 mM CaCl2 in a 20 μl reaction volume. 4-MU-GlcNAc,6S substrate concentration was varied from 0.1-2 mM. 2 μL of enzyme were added to each well of a microtiter plate (prechilled on ice), plate gently vortexed, and contents of each well spun down for 1 minute at 500×g, 4° C. The assay was initiated by transferring the 96 well plate to a heating block prequilibrated at 30° C. Sulfatase incubation (first enzyme) was carried out at 30° C. for 20 minutes, after which enzyme activity was inactivated by heat denaturation (95° C., 10 minutes). In the second enzyme (glucosidase) step, the microtiter plate was once again chilled on ice. […]

[4] = other: Addition: 0.5 mM Ca^+2, pH 5.5, 30° C.
[5] = other: Addition: 5 mM Ca^+2, pH 5.5, 30° C.
[6] = other: Addition: none, pH 5.5, 30° C.

B1: Flavobacterium heparinum N-sulfamidase (ORF C), recombinant, NH2-terminal truncation lacking signal sequence, SEQ ID NO: 4 (Pedobacter heparinus DSM 2366) (protein)
chain: SCTSPEKKTDRPNILMIMSDNQSWNHVGSYGDQTVRTPNMDRIAKEGVRFTNAFCSSPSCTPARAGMLTGQDIWRLEDGGNLWGVLPVKYKVYPDLLEEAGYAIGFQGKGWGPGSFEANKRPRNPAGNEFKSFGAFLKDKKEGPWCYWISSHEPHRPYVEGSGEKAGIDPNKVKVPAYLPDHISIRKDIADYYAAVETFDRELGEALDQLKASGELDNTVIVVCSDNGWQMPRGLANLYDFGTHVPLIISWPGKFKQDVVADNLVTLNDLAPTFLQLGKVPVPADMTGKSLLPIVEAGKKDEKPRDYVVLGRERHAFVRRHGLGYPGRAIRTKDYLYIKNYEPNRWPAGDPPFYGDIDPYMFNWPGETKYYLIEHKDDPKVKSFFELGMGKRPAEELFDINKDPDELHNLAALPEYQKIKQELVAKLRNYLVATKDPRETNGNIQIWDTAAYFSEIDKTPKPSKEMQKRFKLDSSYNYLK
notes: E. coli BL21(DE3), N-terminal 6xHis removed by thrombin
In the case of B1, the “activity below pH 4.5” value ([1]; below pH 4.5) is reported as “Neither enzyme was active”, the “pH range of activity compared with the other enzyme” value ([1]; compared with 6-O-sulfatase) is reported as “active over a broader range, especially above pH 7.0” and the “activity in acetate buffer compared to sulfonate buffers (MES, MOPS)” value ([1]; same pH range) is reported as “higher activity in acetate buffer”.

B2: Flavobacterium heparinum 6-O-sulfatase (ORF B), recombinant, NH2-terminal truncation lacking signal sequence, SEQ ID NO: 2 (Pedobacter heparinus DSM 2366) (protein)
chain: TLMSCQQPKPAESAKRPNIVFIMTDDHTIQAISAYGSKLVKTPNLDRIANEGMLFNNCFVTNAVCGPSRATILTGKYSHLNGLTDNSKVFDSTQVIYPQLLKKAGYQTAMIGKWHLGSTPMGFDYYSILPNQGQYYQPEFIENGHLVKEKGYVTDLITDKAIGFLEKRDHDKPFLMIYQHKAPHRNWLPAPRHLGMFDDTVFPEPANLLDDFKGRGRAAKEQLMNISTDMWPAWDLKMLSTAQLDSMAKLPVSPKFKDAKGDDYQQANDPSLDKARFFEVYNRMTDAEKVQWRKVYDKRVAEFKRLNPKGADLVRWKYQQYMRDYLACVVSVDENVGRLMDYLKKIGELDNTIIVYTSDQGFYLGEHGYFDKRFMYDESFRTPLMVRYPPSVKAGSVSNAFAMNLDFAPTLLDYAGVKIPADMQGLSLRPVLDNAGKSPENWRKAVYYHYYEFPSWHMVKRHYGIRTERYKLIHFYNDIDEWELYDMQKDPHEMQNLYNDKAYEPIIKDLKVQMKKLQVQYKDTNPTEAL
notes: as for B1
In the case of B2, the “activity below pH 4.5” value ([2]; below pH 4.5) is reported as “Neither enzyme was active”, the “activity in acetate buffer compared to sulfonate buffers (MES, MOPS)” value ([2]; same pH range) is reported as “higher activity in acetate buffer” and the Km [3, 4] is reported as 217 µM. For the same molecule, the kcat [3, 4] was 0.055 s⁻¹, the Km [3, 5] was 327 µM and the kcat [3, 5] was 0.113 s⁻¹. It also gave a Km [3, 6] of 146 µM and a kcat [3, 6] of 0.0417 s⁻¹.
